Target: Gαi/13 (N-terminally hexahistidine tagged chimera), AlF4−-activated
Assay: flow cytometry protein interaction assay

Binder	Ki [nM]
LARG RH/DH/PH-F1098D (domain or fragment) SPSTRIAPHIIGAEDDDFGTEHEQINGQCSCFQSIELLKSRPAHLAVFLHHVVSQFDPATLLCYLYSDLYKHTNSKETRRIFLEFHQFFLDRSAHLKVSVPDEMSADLEKRRPELIPEDLHRHYIQTMQERVHPEVQRHLEDFRQKRSMGLTLAESELTKLDAERDKDRLTLEKERTCAEQIVAKIEEVLMTAQAVEEDKSSTMQYVILMYMKHLGVKVKEPRNLEHKRGRIGFLPKIKQSMKKDKEGEEKGKRRGFPSILGPPRRPSRHDNSAIGRAMELQKARHPKHLSTPSSVSPEPQDSAKLRQSGLANEGTDAGYLPANSMSSVASGASFSQEGGKENDTGSKQVGETSAPGDTLDGTPRTLNTVFDFPPPPLDQVQEEECEVERVTEHGTPKPFRKFDSVAFGESQSEDEQFENDLETDPPNWQQLVSREVLLGLKPCEIKRQEVINELFYTERAHVRTLKVLDQVFYQRVSREGILSPSELRKIFSNLEDILQLHIGLNEQMKAVRKRNETSVIDQIGEDLLTWFSGPGEEKLKHAAATFCSNQPFALEMIKSRQKKDSRFQTFVQDAESNPLCRRLQLKDIIPTQMQRLTKYPLLLDNIAKYTEWPTEREKVKKAADHCRQILNYVNQAVKEAENKQRLEDYQRRLDTSSLKLSEYPNVEELRNLDLTKRKMIHEGPLVWKVNRDKTIDLYTLLLEDILVLLQKQDDRLVLRCHSKILASTADSKHTFSPVIKLSTVLVRQVATDNKALDVISMSDNGAQIYELVAQTVSEKTVWQDLICRMAASVKEQS	20
LARG RH/DH/PH-E354K (domain or fragment) SPSTRIAPHIIGAKDDDFGTEHEQINGQCSCFQSIELLKSRPAHLAVFLHHVVSQFDPATLLCYLYSDLYKHTNSKETRRIFLEFHQFFLDRSAHLKVSVPDEMSADLEKRRPELIPEDLHRHYIQTMQERVHPEVQRHLEDFRQKRSMGLTLAESELTKLDAERDKDRLTLEKERTCAEQIVAKIEEVLMTAQAVEEDKSSTMQYVILMYMKHLGVKVKEPRNLEHKRGRIGFLPKIKQSMKKDKEGEEKGKRRGFPSILGPPRRPSRHDNSAIGRAMELQKARHPKHLSTPSSVSPEPQDSAKLRQSGLANEGTDAGYLPANSMSSVASGASFSQEGGKENDTGSKQVGETSAPGDTLDGTPRTLNTVFDFPPPPLDQVQEEECEVERVTEHGTPKPFRKFDSVAFGESQSEDEQFENDLETDPPNWQQLVSREVLLGLKPCEIKRQEVINELFYTERAHVRTLKVLDQVFYQRVSREGILSPSELRKIFSNLEDILQLHIGLNEQMKAVRKRNETSVIDQIGEDLLTWFSGPGEEKLKHAAATFCSNQPFALEMIKSRQKKDSRFQTFVQDAESNPLCRRLQLKDIIPTQMQRLTKYPLLLDNIAKYTEWPTEREKVKKAADHCRQILNYVNQAVKEAENKQRLEDYQRRLDTSSLKLSEYPNVEELRNLDLTKRKMIHEGPLVWKVNRDKTIDLYTLLLEDILVLLQKQDDRLVLRCHSKILASTADSKHTFSPVIKLSTVLVRQVATDNKALFVISMSDNGAQIYELVAQTVSEKTVWQDLICRMAASVKEQS	540
